According to patent US7557190:

Biological target: T1, Ep-CAM/Fc (recombinant human) (human, UniProt P16422)
T1 chain: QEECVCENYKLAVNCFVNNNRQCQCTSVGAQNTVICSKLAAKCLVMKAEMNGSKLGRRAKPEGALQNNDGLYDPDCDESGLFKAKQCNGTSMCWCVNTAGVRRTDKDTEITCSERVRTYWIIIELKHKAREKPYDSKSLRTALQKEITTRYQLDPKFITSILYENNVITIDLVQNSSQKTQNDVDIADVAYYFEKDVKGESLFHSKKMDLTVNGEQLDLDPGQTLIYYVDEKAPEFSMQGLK
Test: SPR

Kd: 64.9 nM
B1: H3.77/L3 (humanized 17-1A) (antibody, V domains shown)
VH: EVQLVESGGGLVQPGGSLRLSCAASGYSFTNYLIEWVRQAPGQGLEWMGVINPGSGGTNYNPSLKSRVTISADKSISTAYMELSSLRSEDTAVYFCARDGPWFAYWGQGTLVTVSS
VL: NIVMTQSPDSLAVSLGERATLSCRASENVVTYVSWYQQKPGQSPQLLIYGASNRYTGVPDRFTGSGSATDFTLTINSLEAEDAATYYCGQGYSYPYTFGGGTKLEIK
